Key:
[1] = target: cGAS-pMag (pMag fused to the C-terminus of full-length cGAS) (UniProt Q8N884); test: dcFCCS
[2] = target: Cyclic GMP-AMP synthase (cGAS), full-length (amino acids 1-522) (UniProt Q8N884 1-522); test: dcFCCS

Molecule “nMagHigh1-ORF9 (nMagHigh1 fused to the N-terminus of VZV-ORF9)” has a fold increase of the proportion forming heterodimer under blue light [1] of 5 fold.

With “nMagHigh1-ORF52 (nMagHigh1 fused to the N-terminus of KSHV-ORF52)” the fold increase of the proportion forming heterodimer under blue light [1] was 5 fold.

Molecule “nMagHigh1-VP22 (nMagHigh1 fused to the N-terminus of HSV1-VP22)” has a fold increase of the proportion forming heterodimer under blue light [1] of 5 fold.

B1: Herpes simplex virus type 1 VP22 (HSV1-VP22) (natural protein)
chain: MTSRRSVKSGPREVPRDEYEDLYYTPSSGMASPDSPPDTSRRGALQTRSRQRGEVRFVQYDESDYALYGGSSSEDDEHPEVPRTRRPVSGAVLSGPGPARAPPPPAGSGGAGRTPTTAPRAPRTQRVATKAPAAPAAETTRGRKSAQPESAALPDAPASTAPTRSKTPAQGLARKLHFSTAPPNPDAPWTPRVAGFNKRVFCAAVGRLAAMHARMAAVQLWDMSRPRTDEDLNELLGITTIRVTVCEGKNLLQRANELVNPDVVQDVDAATATRGRSAASRPTERPRAPARSASRPRRPVE
modifications: AF488 NHS ester label
Molecule B1 has a Kd [2] of roughly 2 µM.

B2: Varicella-Zoster virus ORF9 (VZV-ORF9) (natural protein)
chain: MASSDGDRLCRSNAVRRKTTPSYSGQYRTARRSVVVGPPDDSDDSLGYITTVGADSPSPVYADLYFEHKNTTPRVHQPNDSSGSEDDFEDIDEVVAAFREARLRHELVEDAVYENPLSVEKPSRSFTKNAAVKPKLEDSPKRAPPGAGAIASGRPISFSTAPKTATSSWCGPTPSYNKRVFCEAVRRVAAMQAQKAAEAAWNSNPPRNNAELDRLLTGAVIRITVHEGLNLIQAANEADLGEGASVSKRGHNRKTGDLQGGMGNEPMYAQVRKPKSRTDTQTTGRITNRSRARSASRTDTRK
modifications: AF488 NHS ester label
B2 showed a Kd [2] of roughly 2 µM.
